The data set concerns the target T1, UnCas12f1 (Un1Cas12f1) (UniProt A0A482D308).
T1 sequence: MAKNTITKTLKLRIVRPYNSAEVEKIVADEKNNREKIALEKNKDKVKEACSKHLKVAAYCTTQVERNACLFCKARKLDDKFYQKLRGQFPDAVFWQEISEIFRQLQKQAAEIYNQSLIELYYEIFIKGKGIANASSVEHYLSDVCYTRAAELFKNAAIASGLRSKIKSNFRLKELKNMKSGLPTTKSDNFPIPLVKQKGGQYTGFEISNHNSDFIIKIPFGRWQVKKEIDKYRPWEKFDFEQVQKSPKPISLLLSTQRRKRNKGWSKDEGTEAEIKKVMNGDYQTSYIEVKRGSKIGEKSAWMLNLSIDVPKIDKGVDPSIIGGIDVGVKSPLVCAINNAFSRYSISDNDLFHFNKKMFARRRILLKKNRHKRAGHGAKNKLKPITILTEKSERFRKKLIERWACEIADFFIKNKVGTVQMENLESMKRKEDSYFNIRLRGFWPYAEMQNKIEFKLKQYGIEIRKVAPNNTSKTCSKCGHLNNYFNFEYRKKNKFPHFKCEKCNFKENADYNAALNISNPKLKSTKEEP
Nature of the data set: cell_activity.

“ACCGCUUCACCAAAAGCUGUCCCUUAGGGGAUUAGAACUUGAGUGAAGGUGGGCUGCUUGCAUCAGCCUAAUGUCGAGAAGUGCUUUCUUCGGAAAGUAACCCUCGAAACAAAGAAAGGAAUGCAACNNNNNNNNNNNNNNNNNNNNUUUUAUUUUUUCUCAUUCUCAUGCCUGGACA / TTTGCTCATTCTCATGCCTGGACA / TGTCCAGGCATGAGAATGAGCAAA [ge4.0-F142 sgRNA ; DMD F142 target]”: under “PAM TTTR (TTTG), HEK293, AC16 48.08”, the activity is 54 % indel.
For the sequence “ACCGCUUCACCAAAAGCUGUCCCUUAGGGGAUUAGAACUUGAGUGAAGGUGGGCUGCUUGCAUCAGCCUAAUGUCGAGAAGUGCUUUCUUCGGAAAGUAACCCUCGAAACAAAGAAAGGAAUGCAACNNNNNNNNNNNNNNNNNNNNUUUUAUUUUUUCUCUCCUAGACCAUUUCCCA / TTTGCTCTCCTAGACCATTTCCCA / TGGGAAATGGTCTAGGAGAGCAAA [ge4.0-R52 sgRNA ; DMD R52 target]”, the activity (PAM TTTR (TTTG), HEK293, AC16 36.47) was determined as 46.1 % indel.
Take “ACCGCUUCACUUAGAGUGAAGGUGGGCUGCUUGCAUCAGCCUAAUGUCGAGAAGUGCUUUCUUCGGAAAGUAACCCUCGAAACAAAGAAAGGAAUGCAACNNNNNNNNNNNNNNNNNNNNUUUUAUUUUUUACUGACUACUCCCCAAGUAU / TTTGACTGACTACTCCCCAAGTAT / ATACTTGGGGAGTAGTCAGTCAAA [ge4.1-F110 sgRNA ; DMD F110 target]”: where the note is “ge4.1, PAM TTTG, HEK293, 5 days, no editing detected”, the activity was 0 % indel.
For the setting “PAM TTTR (TTTG), HEK293, AC16 19.18”, “ACCGCUUCACUUAGAGUGAAGGUGGGCUGCUUGCAUCAGCCUAAUGUCGAGAAGUGCUUUCUUCGGAAAGUAACCCUCGAAACAAAGAAAGGAAUGCAACNNNNNNNNNNNNNNNNNNNNUUUUAUUUUUUCUCAUUCUCAUGCCUGGACA / TTTGCTCATTCTCATGCCTGGACA / TGTCCAGGCATGAGAATGAGCAAA [ge4.1-F142 sgRNA ; DMD F142 target]” came in with an activity of 50 % indel.
Turning to “ACCGCUUCACUUAGAGUGAAGGUGGGCUGCUUGCAUCAGCCUAAUGUCGAGAAGUGCUUUCUUCGGAAAGUAACCCUCGAAACAAAGAAAGGAAUGCAACNNNNNNNNNNNNNNNNNNNNUUUUAUUUUUUUAGCUAGAUAAACUUGGGCU / TTTATAGCTAGATAAACTTGGGCT / AGCCCAAGTTTATCTAGCTATAAA [ge4.1-R16 sgRNA ; DMD R16 target]”, the activity (PAM TTTR (TTTA), HEK293, AC16 29.76) amounted to 58.8 % indel.

(Values after patent US20250361529.)
